# Laboratory results published in article PMC5137443.
# T1: POT1 (Homo sapiens, UniProt Q9NUX5 1-634)
# T1 sequence: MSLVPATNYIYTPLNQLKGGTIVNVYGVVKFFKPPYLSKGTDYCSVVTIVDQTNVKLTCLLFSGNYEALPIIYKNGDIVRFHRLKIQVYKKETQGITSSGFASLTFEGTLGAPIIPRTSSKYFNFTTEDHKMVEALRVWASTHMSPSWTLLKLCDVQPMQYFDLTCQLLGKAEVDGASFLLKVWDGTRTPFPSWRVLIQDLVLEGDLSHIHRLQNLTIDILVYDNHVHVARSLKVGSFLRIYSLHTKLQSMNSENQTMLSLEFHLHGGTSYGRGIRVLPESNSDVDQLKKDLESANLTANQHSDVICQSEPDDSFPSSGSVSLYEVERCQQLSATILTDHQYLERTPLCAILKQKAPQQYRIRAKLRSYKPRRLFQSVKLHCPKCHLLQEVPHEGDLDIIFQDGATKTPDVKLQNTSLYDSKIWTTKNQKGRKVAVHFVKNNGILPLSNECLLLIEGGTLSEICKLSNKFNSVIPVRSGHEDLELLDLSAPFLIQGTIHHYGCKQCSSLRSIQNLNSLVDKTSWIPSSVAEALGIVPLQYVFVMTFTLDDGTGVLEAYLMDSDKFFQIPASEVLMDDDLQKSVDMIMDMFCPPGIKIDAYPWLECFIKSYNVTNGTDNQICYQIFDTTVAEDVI
# Assays:
# Assay in all cases: filter binding
# POT1;TPP1-L45 mutant = POT1;TPP1-L45 mutant (Homo sapiens;Homo sapiens, UniProt Q9NUX5;Q96AP0 1-634;3-105+=AAAAA+116-248, |internal_change)
# POT1;TPP1-L23 mutant = POT1;TPP1-L23 mutant (Homo sapiens;Homo sapiens, UniProt Q9NUX5;Q96AP0 1-634;3-248, |D62A;G63A;T64A;H65A)
# POT1;TPP1 (WT) = POT1;TPP1 (WT) (Homo sapiens;Homo sapiens, UniProt Q9NUX5;Q96AP0 1-634;3-248, |)
# POT1 = biological target: T1, POT1
binder,measurement,setting,value
"GGTTAGGGTTAG (ssDNA) [hT12wt, d(GGTTAG)2]",Kd,POT1;TPP1-L45 mutant,13.7 ± 5.5 nM
same,Kd,POT1;TPP1-L23 mutant,27.3 ± 4.2 nM
same,Kd,POT1;TPP1 (WT),3.8 ± 0.5 nM
same,Kd,POT1,38.2 ± 4.8 nM
